Measurements: patent US20220033505A1

Assays:
[1] = target: CD3 on human T cells (Jurkat cells, primary human T cells) (human) (UniProt P07766); experiment: flow cytometry; positive control scFv on human T cells, anti-His Alexa-647
[2] = target: CD3 on human T cells (Jurkat cells, primary human T cells) (human) (UniProt P07766); experiment: flow cytometry; 10 nM antibody on Jurkat cells (No Ab background 2075.61)

CD3 on human T cells (Jurkat cells, primary human T cells) (human), sequence (P07766 23-207): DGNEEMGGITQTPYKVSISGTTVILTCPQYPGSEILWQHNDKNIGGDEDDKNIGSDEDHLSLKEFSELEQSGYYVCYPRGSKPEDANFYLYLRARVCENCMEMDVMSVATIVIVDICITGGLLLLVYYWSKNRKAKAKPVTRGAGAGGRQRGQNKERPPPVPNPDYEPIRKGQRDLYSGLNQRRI

Row | MFI (n = 2) [1] | MFI (arbitrary units) (arbitrary units) [2] | Substance
1 | 99500 | – | CD3W36 (anti-CD3 antibody SP34 formatted as LH-scFv, positive control)
2 | – | 89200 | UCHT1 (anti-CD3 clone, positive control) (antibody)
